What was measured:
[1] = molecular target: CaMKK1_(67–480) D293A, unphosphorylated (human) (UniProt Q8N5S9); experiment: AUC; sedimentation velocity of CaMKKs alone at two concentrations (CaMKK1 at 10 μM); 50 mM Tris–HCl pH 7.5, 150 mM NaCl, 1 mM TCEP; 20°C, 42,000 rpm; monomer to dimer
[2] = molecular target: dansyl-labeled calmodulin (DANS-CaM), Ca2+-bound (rat) (UniProt P0DP29); experiment: fluorescence polarisation; as a1 but with 60 μM 14-3-3γ present: 2 μM DANS-CaM titrated with CaMKK (30 μM and binary dilution series), 1 h incubation; 10 mM HEPES-NaOH pH 7.4, 150 mM NaCl, 1 mM CaCl2, 0.1% Tween 20, 0.1% BSA; one-site-binding model
[3] = molecular target: dansyl-labeled calmodulin (DANS-CaM), Ca2+-bound (rat) (UniProt P0DP29); experiment: fluorescence polarisation; 2 μM DANS-CaM titrated with CaMKK (30 μM and binary dilution series), 1 h incubation; 10 mM HEPES-NaOH pH 7.4, 150 mM NaCl, 1 mM CaCl2, 0.1% Tween 20, 0.1% BSA; one-site-binding model

| stoichiometry N [1] | Kd [2] | Kd [3] | Substance |
| --- | --- | --- | --- |
| 2 |  |  | CaMKK1_(67–480) D293A, unphosphorylated (from UniProt Q8N5S9 67-480) (domain or fragment) |
|  | 510 nM | 560 nM | CaMKK2(93-517) D330A, unphosphorylated (from UniProt Q96RR4 93-517) (domain or fragment) |
|  | > 10800 nM | 3550 nM | pCaMKK2: CaMKK2(93-517) D330A phosphorylated by PKA at four sites (from UniProt Q96RR4 93-517) (domain or fragment) |

From article PMC10588359
